# Results as given in PMC2752461, “Involvement of S-adenosylmethionine-dependent halide/thiol methyltransferase (HTMT) in methyl halide emissions from agricultural plants: isolation and characterization of an HTMT-coding gene from Raphanus sativus (daikon radish)” (BMC Plant Biology, 2009).
# B1: recombinant RsHTMT (Raphanus sativus) (protein)
# chain: MAEGQQNSGNSNGENIIPPEDVAKFLPKTVEEGGWEKCWEDGVTPWDQGRATPLVVHLVESSSLPLGRALVPGCGGGHDVVAMASPERYVVGLDISESALEKAAETYASSPKAKYFTFVKEDFFTWRPSELFDLIFDYVVFCAIEPEMRAAWAKTMYELLKPDGELITLMYPITDHDGGPPYKVAVSTYEDVLVPVGFKAVSIEENPYSIATRKGKEKLGRWKKIN
# notes: sense primer encodes MAEGQQ), His-tagged fusion in pET-21b, E. coli BL21(DE3), Ni-Sepharose, tag kept
# Legend:
# purified protein = substrate: C[S+](CC[C@H](N)C(=O)O)C[C@H]1O[C@@H](n2cnc3c(N)ncnc32)[C@H](O)[C@@H]1O; assay: purified protein; settings: 20 mM iodide constant, 20 mM MES pH 7.0, 30 °C
# [1] = substrate: I; assay: GC-MS headspace assay of methylated product; type: biochemical, Raphanus sativus; settings: 500 μM SAM constant, 20 mM MES pH 7.0, 30 °C
# Description: (§1) GC-MS headspace assay of methylated product on recombinant RsHTMT
# [2] = substrate: S; assay: GC-MS headspace assay of methylated product; type: biochemical, Raphanus sativus; settings: 500 μM SAM constant, supplied as NaSH, 20 mM MES pH 7.0, 30 °C
# Description: as §1
# [3] = substrate: N#CS; assay: GC-FID of CH3SCN formation; type: biochemical, Raphanus sativus; settings: 500 μM SAM constant, KSCN, 20 mM MES pH 7.0, 30 °C
# Description: GC-FID of CH3SCN formation on recombinant RsHTMT
protein,measurement,setting,value
B1,Km,purified protein,190 µM
same,Km,[1],4470 µM
same,Vmax,[1],0.139 µmol/min/mg
same,Km,[2],12240 µM
same,Vmax,[2],0.159 µmol/min/mg
same,Km,[3],40 µM
same,Vmax,[3],0.185 µmol/min/mg
